Here are results for one molecule from article PMC4191393, “Selective microRNA uridylation by Zcchc6 (TUT7) and Zcchc11 (TUT4)”.

This data set addresses T1, r.Zcchc11 (TUT4) (Homo sapiens, UniProt Q5TAX3 225-1384).
T1 sequence: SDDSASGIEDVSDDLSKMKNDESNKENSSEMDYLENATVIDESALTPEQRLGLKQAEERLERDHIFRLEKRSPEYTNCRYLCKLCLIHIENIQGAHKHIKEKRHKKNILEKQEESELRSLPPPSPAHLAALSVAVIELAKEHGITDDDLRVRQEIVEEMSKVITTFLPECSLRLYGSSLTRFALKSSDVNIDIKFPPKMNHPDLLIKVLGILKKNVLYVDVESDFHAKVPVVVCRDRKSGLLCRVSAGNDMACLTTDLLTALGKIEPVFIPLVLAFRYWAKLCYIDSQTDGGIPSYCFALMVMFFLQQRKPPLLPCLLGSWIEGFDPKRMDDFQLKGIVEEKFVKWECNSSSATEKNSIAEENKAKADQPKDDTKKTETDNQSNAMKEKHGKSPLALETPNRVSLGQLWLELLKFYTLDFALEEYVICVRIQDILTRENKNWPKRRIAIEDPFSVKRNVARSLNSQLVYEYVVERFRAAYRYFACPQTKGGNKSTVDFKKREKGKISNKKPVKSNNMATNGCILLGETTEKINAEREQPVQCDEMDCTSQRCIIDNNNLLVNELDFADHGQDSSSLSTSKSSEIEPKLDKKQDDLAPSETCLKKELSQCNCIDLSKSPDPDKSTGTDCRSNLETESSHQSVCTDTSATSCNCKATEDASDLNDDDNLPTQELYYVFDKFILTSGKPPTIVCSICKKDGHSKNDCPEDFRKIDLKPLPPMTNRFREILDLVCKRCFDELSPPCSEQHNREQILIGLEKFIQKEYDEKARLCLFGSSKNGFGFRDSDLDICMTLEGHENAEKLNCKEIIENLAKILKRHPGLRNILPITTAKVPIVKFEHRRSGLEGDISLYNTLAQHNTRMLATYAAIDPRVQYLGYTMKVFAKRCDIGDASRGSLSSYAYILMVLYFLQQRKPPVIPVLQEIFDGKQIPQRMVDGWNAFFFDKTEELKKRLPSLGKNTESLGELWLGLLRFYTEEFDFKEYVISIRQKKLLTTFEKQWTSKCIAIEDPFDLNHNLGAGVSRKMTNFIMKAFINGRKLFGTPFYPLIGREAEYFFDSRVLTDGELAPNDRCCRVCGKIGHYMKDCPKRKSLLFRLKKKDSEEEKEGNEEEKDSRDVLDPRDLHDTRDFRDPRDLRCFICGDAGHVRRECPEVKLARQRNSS
Briefly: EMSA; 2 mM Mg2+; RNA 2.5 nM; EMSA: 500 mM NaCl, 20 mM HEPES pH 7.5, 2 mM MgCl2, 5% glycerol, 1 mM TCEP; 10 ul, 3-50 ng protein, 2.5 nM RNA; native 12% PAGE in 0.5x TBE; temperature not stated. The settings on record: protein: recombinant; tags: N-terminal His6-Trx, removed with TEV; label: 5'-32P; single strand. Background: In EMSA bound probe runs differently from free probe, usually more slowly.

For the molecule UGAGGUAGUAGUUUGUACAGUU (ssRNA) [let-7g guide], the binding result is recorded as “binds”.
